Experimental data reported in IntAct's records for PubMed 21441914.

B1: Double-strand break repair protein rad32 (Schizosaccharomyces pombe (strain ATCC 38366 / 972)), Q09683 (parent)
chain: MPNDPSDMNNELHNENTIRILISSDPHVGYGEKDPVRGNDSFVSFNEILEIARERDVDMILLGGDIFHDNKPSRKALYQALRSLRLNCLGDKPCELELLSDTSLTTGDTAVCNINYLDPNINVAIPVFSIHGNHDDPSGDGRYSALDILQVTGLVNYFGRVPENDNIVVSPILLQKGFTKLALYGISNVRDERLYHSFRENKVKFLRPDLYRDEWFNLLTVHQNHSAHTPTSYLPESFIQDFYDFVLWGHEHECLIDGSYNPTQKFTVVQPGSTIATSLSPGETAPKHCGILNITGKDFHLEKIRLRTVRPFIMKDIILSEVSSIPPMVENKKEVLTYLISKVEEAITEANAQWYEAQGTVPVVENEKPPLPLIRLRVDYTGGYQTENPQRFSNRFVGRVANATDVVQFYLKKKYTRSKRNDGLYTSAVEDIKINSLRVESLVNEYLKTNRLECLPEDSLGEAVVNFVEKDDRDAIKECVETQLNKQINLLVKKRVTEENLEQEISSIINDLPKISTTKRKDYEELPEEVSETSINIAEHTPVLKHTSSLLDHHSPLATSSSEHEMEATPSPALLKKTNKRRELPSSLTKKNTRTPQRSKEVKKVPARKLSQSTKKSDKNTQSTLLFYDPSSTTEAQYLDNEDDEILDD
partner: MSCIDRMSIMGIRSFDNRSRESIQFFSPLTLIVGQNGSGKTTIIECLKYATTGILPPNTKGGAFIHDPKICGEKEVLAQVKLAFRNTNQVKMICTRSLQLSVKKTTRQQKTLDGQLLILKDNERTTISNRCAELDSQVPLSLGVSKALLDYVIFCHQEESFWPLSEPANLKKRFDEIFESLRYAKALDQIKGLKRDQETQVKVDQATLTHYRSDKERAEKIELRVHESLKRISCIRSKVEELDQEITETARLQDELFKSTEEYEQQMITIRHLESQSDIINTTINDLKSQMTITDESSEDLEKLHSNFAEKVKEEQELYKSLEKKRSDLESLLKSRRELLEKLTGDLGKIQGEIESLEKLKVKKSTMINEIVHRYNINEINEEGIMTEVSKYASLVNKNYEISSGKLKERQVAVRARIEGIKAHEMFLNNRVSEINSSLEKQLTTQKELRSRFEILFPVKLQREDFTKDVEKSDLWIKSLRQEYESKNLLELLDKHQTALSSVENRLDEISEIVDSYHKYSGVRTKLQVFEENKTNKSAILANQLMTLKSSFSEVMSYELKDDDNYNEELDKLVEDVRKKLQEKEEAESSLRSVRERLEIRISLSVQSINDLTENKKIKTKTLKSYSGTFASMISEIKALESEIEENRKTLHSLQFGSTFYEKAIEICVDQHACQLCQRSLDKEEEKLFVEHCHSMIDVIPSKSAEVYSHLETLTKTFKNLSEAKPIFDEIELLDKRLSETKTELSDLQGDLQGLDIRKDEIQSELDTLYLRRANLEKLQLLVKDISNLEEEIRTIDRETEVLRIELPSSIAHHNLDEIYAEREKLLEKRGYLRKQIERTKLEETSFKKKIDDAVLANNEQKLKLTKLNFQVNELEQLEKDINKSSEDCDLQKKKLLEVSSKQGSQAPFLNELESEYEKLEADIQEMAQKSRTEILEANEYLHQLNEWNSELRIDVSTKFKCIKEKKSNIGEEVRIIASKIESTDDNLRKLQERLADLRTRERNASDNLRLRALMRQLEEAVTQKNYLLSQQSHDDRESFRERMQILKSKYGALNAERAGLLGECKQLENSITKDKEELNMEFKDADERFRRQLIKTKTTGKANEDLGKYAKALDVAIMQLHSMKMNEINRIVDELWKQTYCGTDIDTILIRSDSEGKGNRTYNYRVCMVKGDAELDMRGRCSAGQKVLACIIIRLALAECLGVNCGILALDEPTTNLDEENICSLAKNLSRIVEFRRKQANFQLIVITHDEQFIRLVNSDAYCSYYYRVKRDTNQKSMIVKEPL

Variants of: B1
Conditions: with rad50_schpo rad50, Q9UTJ8

Effect of a mutation on the interaction, disrupting interaction:
C479R;V480R
C454R;L455R;C479R;V480R
C454R;L455R
